± gives the uncertainty stated by the source.
Assay: protein stability index of a GFP-peptide fusion (yeast GPS) (PSI 1-4); higher = more stable; sorted into four equal gates, so the index is relative within each strain
Summary of the method: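 Mid-log yeast cultures in leucine-free medium, carrying a pooled plasmid library, were sorted into four equal gates by their GFP/Cherry fluorescence ratio. Each plasmid expressed Cherry along with GFP fused upstream of a tiled 17-residue yeast protein peptide. Plasmids recovered from each gate were PCR-amplified and Illumina-sequenced, with reads assigned to strains by barcodes. The protein stability index was obtained by summing each gate's read frequency weighted by its gate number.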

Sequence	protein stability index (doa10∆)	protein stability index (pdr5∆)	protein stability index (san1∆)	protein stability index (ubr1∆)
IDIDKLIQLGVKPLESS [SRP72]	3.19 ± 0.086	2.87 ± 0.068	3.04 ± 0.055	2.82 ± 0.054
IDPDTKAPNAVVITFEK [RPB11]		3.22 ± 0.17	3.09 ± 0.094	2.93 ± 0.15
IDVMKSQIIPLMKKACY [SNU114]	2.23 ± 0.094	2 ± 0.051	2.77 ± 0.047	2.08 ± 0.05
IDVNLNFARQLLFNNDF [RRP40]	2.93 ± 0.064	1.56 ± 0.057	1.36 ± 0.13	1.82 ± 0.05
IEDKENSESTTQGGNVN [RPT5]	3.59 ± 0.14	3.31 ± 0.14	3.46 ± 0.17	3.6 ± 0.11
IEELDNPMVPSSVNEDT [PRP8]	3.26 ± 0.075	3.22 ± 0.065	3.33 ± 0.053	3.26 ± 0.049
IEGVVILKKNPDYREEE [RPN1]	3.06 ± 0.08	3.09 ± 0.09	3.1 ± 0.075	3.1 ± 0.062
IEHPMTSAIEVLVGSCA [RPN1]	1.94 ± 0.043	1.81 ± 0.042	2.14 ± 0.057	1.82 ± 0.046
IEIKISDPLTVFSESCS [SNU114]	2.33 ± 0.071	2.55 ± 0.073	2.42 ± 0.052	2.45 ± 0.06
IEINEDNSQDDQDRGAA [RRI2]	3.24 ± 0.18	3.28 ± 0.23	3.12 ± 0.12	3.04 ± 0.11
IEKARVEAQSHRLTLED [PRE6]				3.26 ± 0.15
IELLCGLGKSAVNWQDK [NAS6]			3.75 ± 0.086	
IELLSDLINILEKKGFS [LIN1]	1.22 ± 0.075	1.43 ± 0.082	1.28 ± 0.17	1.35 ± 0.062
IELNFDAVKDFKLGKFN [QCR2]	3.31 ± 0.26	2.69 ± 0.17	3.31 ± 0.093	3.71 ± 0.25
IEPELFNGYNPEKKEMI [FAS2]	3.18 ± 0.095	3.25 ± 0.13	3.33 ± 0.092	3.43 ± 0.14
IERIGHLLSINYGEKEE [PCI8]	1.32 ± 0.06	1.33 ± 0.055	1.2 ± 0.092	1.18 ± 0.049
IFLAERRILPKPSRTSR [RPS7A]		3.15 ± 0.21	2.8 ± 0.14	2.89 ± 0.13
IGAELKREESESAAVYN [SNF2]	2.99 ± 0.087	3.08 ± 0.091	2.84 ± 0.071	3.21 ± 0.071
IGAGVPSLEVASEYIET [FAS1]	3.38 ± 0.15	3.12 ± 0.18	2.18 ± 0.23	
IGARSQGAKTYLERTLD [PRE5]	3.36 ± 0.13	3.34 ± 0.069	3.23 ± 0.07	3.22 ± 0.066
IGDDGYDLLISTLTTIS [SRB5]	2.18 ± 0.054	2.1 ± 0.058	1.52 ± 0.085	2.2 ± 0.061
IGGLLSKVREEVGDVCI [RPO31]	2.13 ± 0.1	1.86 ± 0.067	2.11 ± 0.11	2.79 ± 0.11
IGIVDYEAGASHGNPVV [FAS1]	3.01 ± 0.068	2.99 ± 0.064	3.03 ± 0.063	3.19 ± 0.04
IGQSEELSDKEIYTVED [ISW2]	3.35 ± 0.13	3.46 ± 0.14	3.31 ± 0.17	3.44 ± 0.13
IGTADIFIRQLKENEEN [BRR2]	3.61 ± 0.12	3.1 ± 0.3		1.36 ± 0.1

Sequence	protein stability index (doa10∆)	protein stability index (pdr5∆)	protein stability index (san1∆)	protein stability index (ubr1∆)
IGVIQLAHYVVTAKLLG [FAS1]	1.51 ± 0.066	1.23 ± 0.04	1.24 ± 0.09	1.35 ± 0.053
IGWCKEDPKRRADTMDF [YJL039C/NUP192]	3.16 ± 0.21	3.56 ± 0.11	3.47 ± 0.13	3.39 ± 0.12
IHKRYIDLEAPVQIVKR [RPS20]	2.5 ± 0.13	2.78 ± 0.15	2.51 ± 0.14	2.96 ± 0.12
IHLKQKLSESLDTRKEL [SMC3]		3.03 ± 0.24	3.4 ± 0.18	3.49 ± 0.15
IHTQLSEIKQQINKAQI [YJL039C/NUP192]	2.73 ± 0.12	2.8 ± 0.18	2.81 ± 0.13	3.12 ± 0.2
IIERYIKSKADAWVSAA [PRP8]	1.86 ± 0.082	1.88 ± 0.072	2.39 ± 0.11	2.09 ± 0.12
IIGHNPDENKTRVRLPS [RPL2A]	2.93 ± 0.074	3.09 ± 0.077	2.93 ± 0.046	3 ± 0.048
IIKRSNGQSLSPVRSDS [YMR153W/NUP53]	2.64 ± 0.093	2.87 ± 0.058	2.76 ± 0.064	2.81 ± 0.037
IITKNENFLKEVFQLRI [GAL11]	1.56 ± 0.091	1.54 ± 0.067	1.54 ± 0.11	1.26 ± 0.062
IITNINAIFLSSEQDYS [YCG1]	2.54 ± 0.078	2.58 ± 0.13	1.58 ± 0.22	2.89 ± 0.098
IIVKDKSNDSEGDFLKS [POP1]	3.06 ± 0.3		3.14 ± 0.11	
IKAFMDSTIGNSKVDMK [IRR1]	2.57 ± 0.27	2.45 ± 0.16		2.05 ± 0.19
IKDTANDNDITVKENES [UBP6]	2.88 ± 0.1	2.45 ± 0.071	1.85 ± 0.075	1.41 ± 0.047
IKEDIEKFDLERVTALK [SMC1]	3.63 ± 0.21		3.41 ± 0.1	
IKEKFDEFIKTHEDLPK [IRR1]	2.7 ± 0.1	2.68 ± 0.095	2.62 ± 0.065	3.01 ± 0.071
IKELRSKGYPIQFLTIG [FAS1]	1.87 ± 0.11	2.22 ± 0.068	1.43 ± 0.096	1.68 ± 0.071
IKESSKKIKGKSIQDIV [SRP21]	3.26 ± 0.077	3.31 ± 0.092	3.33 ± 0.046	3.14 ± 0.12
IKGIREYEEWQKSVSLL [YDL116W/NUP84]	2.08 ± 0.14	2.66 ± 0.12	2.5 ± 0.17	2.55 ± 0.095
IKGNGESDETTTDNNNS [RPT1]	3.15 ± 0.15		3.38 ± 0.04	3.53 ± 0.11
IKIEDFVDDMLRDYRFE [SNF5]	3 ± 0.068	3.16 ± 0.073	3.1 ± 0.067	2.97 ± 0.078
IKILGSEGYQKTFSRLD [RPN4]	1.28 ± 0.089	1.55 ± 0.15	1.05 ± 0.24	
IKKMLHLVWMKGTNDEG [YCS4]	3.17 ± 0.2	3.51 ± 0.11	3.19 ± 0.16	3.33 ± 0.18
IKLGSTAIGIATKEGVV [PUP2]	1.54 ± 0.11	1.63 ± 0.18	1.34 ± 0.26	1.32 ± 0.11
IKNGRIYFTVPNEFEIQ [RGR1]	2.62 ± 0.06	2.49 ± 0.045	2.45 ± 0.049	2.57 ± 0.043

— the supplement of paper PMC9732359
